Results on 5 molecules are retold here after patent US20230212319A1, “NOVEL ANTIGEN BINDING DOMAINS AND SYNTHETIC ANTIGEN RECEPTORS INCORPORATING THE SAME” (University of Southern California, priority 2020, published 2023).

In one experiment the test system is L363 cells. As to the kind of experiment: JNG assay, co-culture with L363 cells. Format: cell-based. As to conditions: co-culture with L363. Summed up:
(§1)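 Jurkat-NFAT-GFP (JNG) cells stably expressing SAR constructs via lentiviral transduction and puromycin/blasticidin selection were cocultured with target cells at E:T ~1:2 for ~4–18 h. NFAT-driven GFP was measured by FACS versus parental JNG cells; scores +/- to 5+ denote ~5–50% GFP-positive cells.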

Another experiment deals with RAJI cells. Description: JNG assay, co-culture with RAJI cells. The class given is cell-based. As to conditions: JNG cells expressing construct, co-culture with Raji. A digest of the protocol: as §1

B1: 22048 (protein)
chain: MALPVTALLLPLALLLHAARPQVQLVESGGGLVQPGGSLRLSCAASGFTFTNHAMSWVRQAPGKGLELVSSISGNGRTTYYADSVKGRFTISRDISKNTLDLQMNSLRAEDTAVYYCAKDGGETLVDSRGQGTLVTVSSLEGQPKANPTVTLFPPSSEELQANKATLVCLISDFYPGAVTVAWKADGSPVKAGVETTKPSKQSNNKYAASSYLSLTPEQWKSHRSYSCQVTHEGSTVEKTVAPTECSPIKTDVITMDPKDNCSKDANDTLLLQLTNTSAYYMYLLLLLKSVVYFAIITCCLLRRTAFCCNGEKSRAKRSGSGATNFSLLKQAGDVEENPGPTSMDWIWRILFLVGAATGAHSFEEVQLLESGGGLVQPGGSLRLSCAASGFTFSSYAMSWVRQAPGKGLEWVSSISGSGDYIYYADSVKGRFTISRDISKNTLYLQMNSLRAEDTAVYYCAKEGTGANSSLADYRGQGTLVTVSSTRASTKGPSVFPLAPSSKSTSGGTAALGCLVKDYFPEPVTVSWNSGALTSGVHTFPAVLQSSGLYSLSSVVTVPSSSLGTQTYICNVNHKPSNTKVDKRVEPKSCEVKTDSTDHVKPKETENTKQPSKSCHKPKAIVHTEKVNMMSLTVLGLRMLFAKTVAVNFLLTAKLFFLRAKRSGSGVKQTLNFDLLKLAGDVESNPGPSRGHMTEYKPTVRLATRDDVPRAVRTLAAAFADYPATRHTVDPDRHIERVTELQELFLTRVGLDIGKVWVADDGAAVAVWTTPESVEAGAVFAEIGPRMAELSGSRLAAQQQMEGLLAPHRPKEPAWFLATVGVSPDHQGKGLGSAVVLPGVEAAERAGVPAFLETSAPRNLPFYERLGFTVTADVEVPEGPRTWCMTRKPGA
Consider B1, for which the “NFAT-GFP ASSAY: L363” value with L363 cells is “+/- (refer to approximately 5%, 10%, 20%, 30%, 40% and 50% GFP positive cells)”. The “NFAT-GFP ASSAY: Raji” value in the experiment on RAJI cells was “+ (refer to approximately 5%, 10%, 20%, 30%, 40% and 50% GFP positive cells)”.

B2: 22029 (protein)
chain: MALPVTALLLPLALLLHAARPQLQLQESGPGLVKPSETLSLTCTVSGDSISSGDYYWGWIRQPPGKGLEWIGHIYYSGVTYYNPSLKSRVTISVDTSRNQFSLKLSSVTAADTAVYYCTREDSSNWRSRGQGTLVTVSSLEDKTHTCPPCPAPIKTDVITMDPKDNCSKDANDTLLLQLTNTSAYYMYLLLLLKSVVYFAIITCCLLRRTAFCCNGEKSRAKRSGSGATNFSLLKQAGDVEENPGPTSMDWIWRILFLVGAATGAHSFEVQLVESGGGVVQPGRSLRLSCAASGFSFSGYGMHWVRQAPGKGLEWVAYISYDGSNKYYADSVKGRFTISRDNSKNTLYLQMNSLRAEDTAVYYCAKDPAWGLRLGESSSYDFDIWGQGTMVTVSSTRIQNPDPAVYQLRDSKSSDKSVCLFTDFDSQTNVSQSKDSDVYITDKCVLDMRSMDFKSNSAVAWSNKSDFACANAFNNSIIPEDTFFPSPESSCDVKLVEKSFETDTNLNFQNLSVIGFRILLLKVAGFNLLMTLRLWSSRAKRSGSGVKQTLNFDLLKLAGDVESNPGPSRGHMTEYKPTVRLATRDDVPRAVRTLAAAFADYPATRHTVDPDRHIERVTELQELFLTRVGLDIGKVWVADDGAAVAVWTTPESVEAGAVFAEIGPRMAELSGSRLAAQQQMEGLLAPHRPKEPAWFLATVGVSPDHQGKGLGSAVVLPGVEAAERAGVPAFLETSAPRNLPFYERLGFTVTADVEVPEGPRTWCMTRKPGA
For the molecule B2, in the experiment with L363 cells, the “NFAT-GFP ASSAY: L363” value was “+ (refer to approximately 5%, 10%, 20%, 30%, 40% and 50% GFP positive cells)”. Moreover, the “NFAT-GFP ASSAY: Raji” value with RAJI cells is “+/- (refer to approximately 5%, 10%, 20%, 30%, 40% and 50% GFP positive cells)”.

B3: 22034 (protein)
chain: MALPVTALLLPLALLLHAARPQLQLQESGPGLVKPSETLSLTCTVSGDSISSGDYYWGWIRQPPGKGLEWIGHIYYSGVTYYNPSLKSRVTISVDTSRNQFSLKLSSVTAADTAVYYCTREDSSNWRSRGQGTLVTVSSLESGGGGSFEEVQLLESGGGLVQPGGSLRLSCAASGFTFSSYAMSWVRQAPGKGLEWVSSISGSGDYIYYADSVKGRFTISRDISKNTLYLQMNSLRAEDTAVYYCAKEGTGANSSLADYRGQGTLVTVSSTREQKLISEEDGSGIQNPDPAVYQLRDSKSSDKSVCLFTDFDSQTNVSQSKDSDVYITDKCVLDMRSMDFKSNSAVAWSNKSDFACANAFNNSIIPEDTFFPSSDVPCDVKLVEKSFETDTNLNFQNLSVIGFRILLLKVAGFNLLMTLRLWSSRAKRSGSGVKQTLNFDLLKLAGDVESNPGPSRGRMAKPLSQEESTLIERATATINSIPISEDYSVASAALSSDGRIFTGVNVYHFTGGPCAELVVLGTAAAAAAGNLTCIVAIGNENRGILSPCGRCRQVLLDLHPGIKAIVKDSDGQPTAVGIRELLPSGYVWEG
For B3, the “NFAT-GFP ASSAY: L363” value with L363 cells is “+/- (refer to approximately 5%, 10%, 20%, 30%, 40% and 50% GFP positive cells)”. For the same molecule, the “NFAT-GFP ASSAY: Raji” value in the experiment with RAJI cells is “+/- (refer to approximately 5%, 10%, 20%, 30%, 40% and 50% GFP positive cells)”.

B4: 22041 (protein)
chain: MALPVTALLLPLALLLHAARPQLQLQESGPGLVKPSETLSLTCTVSGDSISSGDYYWGWIRQPPGKGLEWIGHIYYSGVTYYNPSLKSRVTISVDTSRNQFSLKLSSVTAADTAVYYCTREDSSNWRSRGQGTLVTVSSLEGSGRADCGFTSESYQQGVLSATILYEILLGKATLYAVLVSALVLMAMVKRKDSRGRAKRSGSGATNFSLLKQAGDVEENPGPTSMDWIWRILFLVGAATGAHSFEVQLLESGGGLIQPGGSLRLSCAASGFTFSSHAMTWVRQAPGKGLEWVSAISGSGDYTHYADSVKGRFTISRDNSKNTVYLQMNSLRAEDSAVYYCAKDEDGGSLLGHRGQGTLVTVSSTRDKTHTCPPCPAIPEDTFFPSPESSCDVKLVEKSFETDTNLNFQNLSVIGFRILLLKVAGFNLLMTLRLWSSRAKRSGSGVKQTLNFDLLKLAGDVESNPGPSRGHMTEYKPTVRLATRDDVPRAVRTLAAAFADYPATRHTVDPDRHIERVTELQELFLTRVGLDIGKVWVADDGAAVAVWTTPESVEAGAVFAEIGPRMAELSGSRLAAQQQMEGLLAPHRPKEPAWFLATVGVSPDHQGKGLGSAVVLPGVEAAERAGVPAFLETSAPRNLPFYERLGFTVTADVEVPEGPRTWCMTRKPGA
In the case of B4, the “NFAT-GFP ASSAY: L363” value in the experiment with L363 cells is “+ (refer to approximately 5%, 10%, 20%, 30%, 40% and 50% GFP positive cells)”. Moreover, the “NFAT-GFP ASSAY: Raji” value with RAJI cells was “+ (refer to approximately 5%, 10%, 20%, 30%, 40% and 50% GFP positive cells)”.

B5: 22025 (protein)
chain: MALPVTALLLPLALLLHAARPQLQLQESGPGLVKPSETLSLTCTVSGDSISSGDYYWGWIRQPPGKGLEWIGHIYYSGVTYYNPSLKSRVTISVDTSRNQFSLKLSSVTAADTAVYYCTREDSSNWRSRGQGTLVTVSSLEDKTHTCPPCPAGRADCGFTSESYQQGVLSATILYEILLGKATLYAVLVSALVLMAMVKRKDSRGRAKRSGSGATNFSLLKQAGDVEENPGPTSMDWIWRILFLVGAATGAHSFEVQLLESGGGLIQPGGSLRLSCAASGFTFSSHAMTWVRQAPGKGLEWVSAISGSGDYTHYADSVKGRFTISRDNSKNTVYLQMNSLRAEDSAVYYCAKDEDGGSLLGHRGQGTLVTVSSTRDKTHTCPPCPAIPEDTFFPSPESSCDVKLVEKSFETDTNLNFQNLSVIGFRILLLKVAGFNLLMTLRLWSSRAKRSGSGVKQTLNFDLLKLAGDVESNPGPSRGHMTEYKPTVRLATRDDVPRAVRTLAAAFADYPATRHTVDPDRHIERVTELQELFLTRVGLDIGKVWVADDGAAVAVWTTPESVEAGAVFAEIGPRMAELSGSRLAAQQQMEGLLAPHRPKEPAWFLATVGVSPDHQGKGLGSAVVLPGVEAAERAGVPAFLETSAPRNLPFYERLGFTVTADVEVPEGPRTWCMTRKPGA
With B5, in the experiment on L363 cells, the “NFAT-GFP ASSAY: L363” value was “+ (refer to approximately 5%, 10%, 20%, 30%, 40% and 50% GFP positive cells)”. Besides, the “NFAT-GFP ASSAY: Raji” value in the experiment on RAJI cells is “+/- (refer to approximately 5%, 10%, 20%, 30%, 40% and 50% GFP positive cells)”.
